Values joined by “and” are separate entries in the source; they are usually repeats but may differ in a detail not shown here. Equal values may be shown once.

Data on three molecules can be found in patent US20230313187A1, “MODIFICATIONS OF MAMMALIAN CELLS USING ARTIFICIAL MICRO-RNA TO ALTER THEIR PROPERTIES AND THE COMPOSITIONS OF THEIR PRODUCTS” (DNA TWOPOINTO INC., priority 2020, published 2023).

Series [1] relates to Cricetulus griseus interferon receptor subunit 1 mRNA and subunit 2 mRNA. Kind of series: Expression of human interferon beta from CHO cells (ELISA), amiRNA to both interferon receptor subunits. It is filed as cell-based. The note with it: for Average Titer: average of duplicate cultures; for interferon beta expression compared with the control transposon: control transposon expressed 48 μg/ml; for Titer: 10-day fed batch. The text has this:
One multi-hairpin amiRNA, with nucleotide sequence SEQ ID NO: 600, comprised five hairpins; the first hairpin comprised a guide strand with nucleotide sequence SEQ ID NO: 103, immediately followed by a loop with nucleotide sequence SEQ ID NO: 241 and passenger strand with nucleotide sequence SEQ ID NO: 188; the second hairpin comprised a guide strand with nucleotide sequence SEQ ID NO: 95, immediately followed by a loop with nucleotide sequence SEQ ID NO: 241 and passenger strand with nucleotide sequence SEQ ID NO: 180; the third hairpin comprised a guide strand with nucleotide sequence SEQ ID NO: 104, immediately followed by a loop with nucleotide sequence SEQ ID NO: 241 and a passenger strand with nucleotide sequence SEQ ID NO: 189; the fourth hairpin comprised a guide strand with nucleotide sequence SEQ ID NO: 97, immediately followed by a loop with nucleotide sequence SEQ ID NO: 241 and a passenger strand with nucleotide sequence SEQ ID NO: 182; the fifth hairpin comprised a guide strand with nucleotide sequence SEQ ID NO: 102, immediately followed by a loop with nucleotide sequence SEQ ID NO: 241 and a passenger strand with nucleotide sequence SEQ ID NO: 187. Two of these five guide strand sequences were a 22 base sequence that was an exact reverse complement of a different region within the Cricetulus griseus interferon receptor subunit 1 mRNA (with nucleotide sequence SEQ ID NO: 19); three of these five guide strand sequences were a 22 base sequence that was an exact reverse complement of a different region within the Cricetulus griseus interferon receptor subunit 2 mRNA (with nucleotide sequence SEQ ID NO: 20). Each passenger strand sequence was complementary to its corresponding guide strand sequence, except that the bases in the passenger strand sequences corresponding to the 5′ base of the guide strand and the twelfth base of the guide strand were changed to be non-complementary.
One multi-hairpin amiRNA, with nucleotide sequence SEQ ID NO: 601, comprised four hairpins; the first hairpin comprised a guide strand with nucleotide sequence SEQ ID NO: 101, immediately followed by a loop with nucleotide sequence SEQ ID NO: 241 and passenger strand with nucleotide sequence SEQ ID NO: 186; the second hairpin comprised a guide strand with nucleotide sequence SEQ ID NO: 99, immediately followed by a loop with nucleotide sequence SEQ ID NO: 241 and passenger strand with nucleotide sequence SEQ ID NO: 184; the third hairpin comprised a guide strand with nucleotide sequence SEQ ID NO: 102, immediately followed by a loop with nucleotide sequence SEQ ID NO: 241 and a passenger strand with nucleotide sequence SEQ ID NO: 187; the fourth hairpin comprised a guide strand with nucleotide sequence SEQ ID NO: 106, immediately followed by a loop with nucleotide sequence SEQ ID NO: 241 and a passenger strand with nucleotide sequence SEQ ID NO: 191. Two of these four guide strand sequences were a 22 base sequence that was an exact reverse complement of a different region within the Cricetulus griseus interferon receptor subunit 1 mRNA (with nucleotide sequence SEQ ID NO: 19); two of these four guide strand sequences were a 22 base sequence that was an exact reverse complement of a different region within the Cricetulus griseus interferon receptor subunit 2 mRNA (with nucleotide sequence SEQ ID NO: 20). Each passenger strand sequence was complementary to its corresponding guide strand sequence, except that the bases in the passenger strand sequences corresponding to the 5′ base of the guide strand and the twelfth base of the guide strand were changed to be non-complementary. […]
(In general: An ELISA detects its analyte on a solid surface through an enzyme-linked reagent.)

In series [2] the test system is Homo sapiens alpha-(1,6)-fucosyl transferase (FUT8) mRNA. Briefly: Inhibition of antibody fucosylation in HEK cell pools, amiRNA directed toward FUT8. It is filed as cell-based. The text has this:
Two different multi-hairpin amiRNA sequences were designed to target genes involved in the fucosylation pathway in human cells: alpha-(1,6)-fucosyl transferase (FUT8), GDP-Mannose 4,6-dehydratase (GMD), and GDP-fucose transporter 1 (GFT). One Multi-hairpin amiRNA, with nucleotide sequence SEQ ID NO: 202 comprised three hairpins; the first hairpin comprised guide strand sequence SEQ ID NO: 29, immediately followed by loop sequence SEQ ID NO: 241 and passenger strand sequence SEQ ID NO: 114, the second hairpin comprised guide strand sequence SEQ ID NO: 30, immediately followed by loop sequence SEQ ID NO: 241 and passenger strand sequence SEQ ID NO: 115, the third hairpin comprised guide strand sequence SEQ ID NO: 31, immediately followed by loop sequence SEQ ID NO: 241 and passenger strand sequence SEQ ID NO: 116. Each of these three guide strand sequences was a 22 base sequence that was an exact reverse complement of a different region within the Homo sapiens alpha-(1,6)-fucosyl transferase (FUT8) mRNA. Each passenger strand sequence was complementary to its corresponding guide strand sequence, except that the bases in the passenger strand sequences corresponding to the 5′ base of the guide strand and the twelfth base of the guide strand were changed to be non-complementary. The first and twelfth bases of guide strand with SEQ ID NO: 29 are T and T respectively, the corresponding bases in the corresponding passenger strand sequence SEQ ID NO: 114 are C and C respectively. The first and twelfth bases of guide strand with SEQ ID NO: 30 are T and T respectively, the corresponding bases in the corresponding passenger strand sequence SEQ ID NO: 115 are C and C respectively. The first and twelfth bases of guide strand with SEQ ID NO: 31 are T and A respectively, the corresponding bases in the corresponding passenger strand sequence SEQ ID NO: 116 are C and C respectively. Each hairpin in multi-hairpin amiRNA nucleotide sequence SEQ ID NO: 202 further comprised additional stem-stabilizing sequences, with stem sequence SEQ ID NO: 255 immediately preceding the guide strand sequence, and stem sequence SEQ ID NO: 256 immediately following the passenger strand sequence. Multi-hairpin amiRNA nucleotide sequence SEQ ID NO: 202 further comprised an unstructured sequence with SEQ ID NO: 251 to the 5′ of the first hairpin, and an unstructured sequence with SEQ ID NO: 253 to the 3′ of the third hairpin. […]
The multi-hairpin amiRNA sequences were placed to the 3′ of an open reading frame encoding a red fluorescent protein (with nucleotide sequence SEQ ID NO: 279) and followed by a rabbit globin polyadenylation sequence. […]

Setting [3] is: interferon beta in supernatant, first of duplicate cultures.
Where [4] appears, read: interferon beta, second of duplicate cultures.

B1: SEQ ID NO: 600: five-hairpin amiRNA, two guides to interferon receptor subunit 1 mRNA and three to subunit 2 mRNA (nucleic acid)
chain: ATCTGATCTTCTGAAGAAAATATATTTCTTTTTATTCATAGCTCTTAACTAGTGGTGATAGCAATGTCAGCAGTGCCTAAGACTATCAGCAAGAACCAGGGTGAAGCCACAGATGCCTGGTTCTTACTGATAGTCTCAAGTAAGGTTGACCATACTCTACTCTAGTTATATTCTTTAGGCACGAATGTGTGTTTAAAAAAAATAAAAACTAGTGGTGATAGCAATGTCAGCAGTGCCTTAAAATAACACACAAGAGCCATGTGAAGCCACAGATGATGGCTCTTGCGTGTTATTTTCAAGTAAGGTTGACCATACTCTACTCTAGAGTTGTGTTTTAATGTATATTAATGTTACTAATGTGTTTACTAGTGGTGATAGCAATGTCAGCAGTGCCTTTGAAGATAACTTTGTCCCCGGGTGAAGCCACAGATGCCGGGGACAACGTTATCTTCACAAGTAAGGTTGACCATACTCTACTCTAGGTTATTTTTAGTATGATTCTGTAAAAATGAATTAATACTAACTAGTGGTGATAGCAATGTCAGCAGTGCCTTTAAACAGTAAGTAGTCTCTGGGTGAAGCCACAGATGCCAGAGACTAATTACTGTTTACAAGTAAGGTTGACCATACTCTACTCTAGATTTTTCAGATGTATCATCTCTTAAAATACTGTAATTGCAACTAGTGGTGATAGCAATGTCAGCAGTGCCTTAAACAACAATGGATCCCCAAAGTGAAGCCACAGATGTTTGGGGATCAATTGTTGTTTCAAGTAAGGTTGACCATACTCTACTCTAGTCAGTTTTATTGATAGTCTTTTCAGTATTATTGATAATCTT
With B1, in series [1], the “Average Titer” value was found to be 79.8 µg/mL and the “interferon beta expression compared with the control transposon” value is listed as “as much as twice the expression levels of interferon beta as the control transposon”. Also, in series [1] (setting [3]), the “Titer” value was determined as 80.3 µg/mL. Besides, the “Titer” value in series [1] (setting [4]) was 79.2 µg/mL.

B2: SEQ ID NO: 601: four-hairpin amiRNA, two guides to interferon receptor subunit 1 mRNA and two to subunit 2 mRNA (nucleic acid)
chain: ATCTGATCTTCTGAAGAAAATATATTTCTTTTTATTCATAGCTCTTAACTAGTGGTGATAGCAATGTCAGCAGTGCCTTAGTGTAGACAACAGTACCTCTGTGAAGCCACAGATGAGAGGTACTATTGTCTACACTCAAGTAAGGTTGACCATACTCTACTCTAGTTATATTCTTTAGGCACGAATGTGTGTTTAAAAAAAATAAAAACTAGTGGTGATAGCAATGTCAGCAGTGCCTTTCCACGTCTGTCTTGTCCTACGTGAAGCCACAGATGGTAGGACAAGCCAGACGTGGACAAGTAAGGTTGACCATACTCTACTCTAGAGTTGTGTTTTAATGTATATTAATGTTACTAATGTGTTTACTAGTGGTGATAGCAATGTCAGCAGTGCCTTAAACAACAATGGATCCCCAAAGTGAAGCCACAGATGTTTGGGGATCAATTGTTGTTTCAAGTAAGGTTGACCATACTCTACTCTAGGTTATTTTTAGTATGATTCTGTAAAAATGAATTAATACTAACTAGTGGTGATAGCAATGTCAGCAGTGCCTTAACACAGTACCGCCTTAGTGCGTGAAGCCACAGATGGCACTAAGGCAGTACTGTGTTCAAGTAAGGTTGACCATACTCTACTCTAGTCAGTTTTATTGATAGTCTTTTCAGTATTATTGATAATCTT
For B2, in series [1], the “Average Titer” value turned out to be 88.0 µg/mL and the “interferon beta expression compared with the control transposon” value is “as much as twice the expression levels of interferon beta as the control transposon”. In series [1] (setting [3]), the “Titer” value came to 97.3 µg/mL. In addition, the “Titer” value in series [1] (setting [4]) came out at 78.6 µg/mL.

B3: SEQ ID NO: 202: three-hairpin amiRNA, guides SEQ ID NOs 29, 30, 31 complementary to Homo sapiens FUT8 mRNA (nucleic acid)
chain: ATCTGATCTTCTGAAGAAAATATATTTCTTTTTATTCATAGCTCTTAACTAGTGGTGATAGCAATGTCAGCAGTGCCTTTGGTCGTTTATCTCTTCCATCGTGAAGCCACAGATGGATGGAAGAGCTAAACGACCACAAGTAAGGTTGACCATACTCTACTCTAGAGTTGTGTTTTAATGTATATTAATGTTACTAATGTGTTTACTAGTGGTGATAGCAATGTCAGCAGTGCCTTTCATCTACAGTTTGGCTGAAAGTGAAGCCACAGATGTTTCAGCCAACCTGTAGATGACAAGTAAGGTTGACCATACTCTACTCTAGGTTATTTTTAGTATGATTCTGTAAAAATGAATTAATACTAACTAGTGGTGATAGCAATGTCAGCAGTGCCTTTAAATTACACAATATGGCAGTGTGAAGCCACAGATGACTGCCATATCGTGTAATTTACAAGTAAGGTTGACCATACTCTACTCTAGTCAGTTTTATTGATAGTCTTTTCAGTATTATTGATAATCTT
Turning to B3, in series [2] (afucosylated antibody, HEK pool, 7-day transient culture, listed as 202), the “G0 + G1 % (area)” value is 90 % (area) and 89 % (area). Also, in series [2] (antibody in culture supernatant, HEK pool, 7-day culture, listed as 202), the “Titer” value was 353 mg/L and 316 mg/L. For the same molecule, in series [2] (both replicates of HEK cell pools (Table 3 rows 3 and 4)), the “reduction of antibody fucosylation” value is on record as “approximately 90%”. For the same molecule, the “G0F + G1F (% area)” value in series [2] (fucosylated antibody, HEK pool, 7-day transient culture, listed as 202) was 10 % area and 11 % area.
